Assay results published in publication PMC3298459.

How the values were obtained:
purified protein [1] = substrate: O=C1O[C@@H](COP(=O)(O)O)[C@H](O)[C@@H]1O; assay: purified protein; format: biochemical, Halalkalibacterium halodurans; conditions: [Co/Co] form, 2.5 mM Bicine pH 8.3, 0.2 M NaCl, 1% DMSO
purified protein [2] = substrate: O=C1O[C@H](COP(=O)(O)O)[C@H](O)[C@@H]1O; assay: purified protein; format: biochemical, Halalkalibacterium halodurans; conditions: [Co/Co] form, 2.5 mM Bicine pH 8.3, 0.2 M NaCl, 1% DMSO

B1: Bh0225 (Halalkalibacterium halodurans C-125) (protein)
chain: MSFIRTLRGDINPEELGFTYSHEHIVCRPDYWVQRQEGDLLLDDKEKSKRDVEDFKRHGGNSIVDATAVDYGRDVGAVKAISDELDVHIIGTAGFNKSFLWNAKIKEELKPIIGGQYDTFAEWIDGSTIHDLTEFVVREVEEGLEGTPWKAGQVKFGTGYNRISPLEEKTLRAVARAHHETKAPIHSHTEVGTMALEQIELLKSEGINLEHVSIGHMDRNPDPYYHEQIAKTGAFLSFDGIGKIKYAPESTRIHCILELVKKGYDQQILISGDTARKTYYKHYDYGLGLEYIIAKWIPRFISEANHRGFDGEALIHTFFVENPARCFAFKL
Purified protein [1]
  Km: 200 ± 20 µM
  kcat: 30 ± 1 s⁻¹
  kcat/Km: 150000 ± 15000 M⁻¹ s⁻¹
Purified protein [2]
  Km: 240 ± 20 µM
  kcat: 24 ± 1 s⁻¹
  kcat/Km: 100000 ± 10000 M⁻¹ s⁻¹
